Measurements from patent US20230201308A1, “TREATMENT OF CORONAVIRUS INFECTION WITH […]” (Eiger Biopharmaceuticals, Inc., priority 2020, published 2023).
Read-outs that look alike come from different tables or passages of the source.

Columns and labels:
SARS-CoV-2 = assay: Third trial (TOGETHER): virological assessment, quantitative real-time PCR of mid-turbinate swabs; type: in vivo, human; details: for proportion of participants with a negative swab for SARS-CoV-2 RNA: Canadian cohort
[1] = for Aes: outside of the directed symptom categories
Description: Detailed directed and open-ended symptoms were assessed serially. Because of overlap between symptoms of COVID-19 and potential peginterferon-lambda Aes, symptoms were recorded and Aes were considered any symptom outside of the directed symptom assessment. Laboratory AE severity was graded using the Common Terminology Criteria for Adverse Events (CTCAE) Version 5.0.

[2] = Day 7, high baseline viral load
[3] = Baseline Viral Load <10E6 copies/mL
[4] = Baseline Viral Load ≥10E6 copies/mL
[5] = n=30, listed as Peginterferon Lambda
[6] = n=30, listed as peginterferon-lambda

B1: pegylated interferon lambda-1a (protein)
chain: MKPTTTGKGCHIGRFKSLSPQELASFKKARDALEESLKLKNWSCSSPVFPGNWDLRLLQVRERPVALEAELALTLKVLEAAAGPALEDVLDQPLHTLHHILSQLQACIQPQPTAGPRPRGRLHHWLHRLQEAPKKESAGCLEASVTFNLFRLLTRDLKYVADGNLSLRTSTHPEST
modifications: PEG
notes: 180 mcg subcutaneous injection
- proportion of participants with a negative swab for SARS-CoV-2 RNA (SARS-CoV-2; Day 0 post injection): 0
- proportion of participants with a negative swab for SARS-CoV-2 RNA (SARS-CoV-2; Day 1 post injection): 0
- proportion of participants with a negative swab for SARS-CoV-2 RNA (SARS-CoV-2; Day 2 post injection): 7
- proportion of participants with a negative swab for SARS-CoV-2 RNA (SARS-CoV-2; Day 3 post injection): 27
- proportion of participants with a negative swab for SARS-CoV-2 RNA (SARS-CoV-2; Day 4 post injection): 40
- proportion of participants with a negative swab for SARS-CoV-2 RNA (SARS-CoV-2; Day 5 post injection): 60
- proportion of participants with a negative swab for SARS-CoV-2 RNA (SARS-CoV-2; Day 6 post injection): 64
- odds ratio, below the limit of quantitation vs placebo (SARS-CoV-2; [2]): 2.13
- patients below the limit of quantitation (SARS-CoV-2; [2]): 50.5%
- treatment effect on viral load (Beta) (SARS-CoV-2; Day 7, high baseline viral load (≥192,841,278 copies/mL)): −1.01
- median viral load decline from baseline (SARS-CoV-2; Day 7, hospitalized patients): 7.19 log copies/mL
- proportion of participants with a negative swab for SARS-CoV-2 RNA (SARS-CoV-2; Day 7 post injection): 86
- proportion of participants with a negative swab for SARS-CoV-2 RNA (SARS-CoV-2; Day 8 post injection): 92
- proportion of participants with a negative swab for SARS-CoV-2 RNA (SARS-CoV-2; Day 9 post injection): 85
- proportion of participants with a negative swab for SARS-CoV-2 RNA (SARS-CoV-2; Day 10 post injection): 92
- proportion of participants with a negative swab for SARS-CoV-2 RNA (SARS-CoV-2; Day 11 post injection): 100
- proportion of participants with a negative swab for SARS-CoV-2 RNA (SARS-CoV-2; Day 12 post injection): 100
- proportion of participants with a negative swab for SARS-CoV-2 RNA (SARS-CoV-2; Day 13 post injection): 100
- proportion of participants with a negative swab for SARS-CoV-2 RNA (SARS-CoV-2; Day 14 post injection): 100
- median log decline in viral load (SARS-CoV-2; by Day 7, high baseline viral load): 8.29
- viral loads by Day 7 (SARS-CoV-2; final analysis): significantly lowered
- treatment effect on viral load (Beta) (SARS-CoV-2; low baseline viral load group): 0.22
- deaths ([1]; 14 days): No deaths
- OR symptom progression vs Placebo, All Symptoms ([1]; All samples): 3.15
- OR symptom progression vs Placebo, Fever Syndrome ([1]; All samples): 1.69
- OR symptom progression vs Placebo, Gastrointestinal ([1]; All samples): 0.48
- OR symptom progression vs Placebo, Mood ([1]; All samples): 0.90
- OR symptom progression vs Placebo, Musculoskeletal ([1]; All samples): 1.80
- OR symptom progression vs Placebo, Neurologic ([1]; All samples): 5.07
- OR symptom progression vs Placebo, Respiratory ([1]; All samples): 4.67
- OR symptom progression vs Placebo, Skin ([1]; All samples): 0.76
- OR symptom progression vs Placebo, All Symptoms [1, 3]: 1.63
- OR symptom progression vs Placebo, Fever Syndrome [1, 3]: 4.83
- OR symptom progression vs Placebo, Gastrointestinal [1, 3]: 0.40
- OR symptom progression vs Placebo, Mood [1, 3]: 0.32
- OR symptom progression vs Placebo, Musculoskeletal [1, 3]: 2.55
- OR symptom progression vs Placebo, Neurologic [1, 3]: 1.60
- OR symptom progression vs Placebo, Respiratory [1, 3]: 3.67
- OR symptom progression vs Placebo, Skin [1, 3]: 0.51
- OR symptom progression vs Placebo, All Symptoms [1, 4]: 2.39
- OR symptom progression vs Placebo, Fever Syndrome [1, 4]: 1.24
- OR symptom progression vs Placebo, Gastrointestinal [1, 4]: 0.58
- OR symptom progression vs Placebo, Mood [1, 4]: 1.29
- OR symptom progression vs Placebo, Musculoskeletal [1, 4]: 1.19
- OR symptom progression vs Placebo, Neurologic [1, 4]: 2.61
- OR symptom progression vs Placebo, Respiratory [1, 4]: 5.88
- OR symptom progression vs Placebo, Skin [1, 4]: 1.90
- Emergency Room visits ([1]; n=30): 1
- Hospital admissions ([1]; n=30): 1
- Lab Abnormalities (grade 3 or 4), Alanine aminotransferase (ALT) ([1]; n=30): 1
- Lab Abnormalities (grade 3 or 4), Aspartate aminotransferase (AST) ([1]; n=30): 1
- Lab Abnormalities (grade 3 or 4), Creatinine ([1]; n=30): 0
- Lab Abnormalities (grade 3 or 4), Hemoglobin ([1]; n=30): 0
- Lab Abnormalities (grade 3 or 4), Lymphocytes ([1]; n=30): 0
- Lab Abnormalities (grade 3 or 4), Neutrophils ([1]; n=30): 0
- Lab Abnormalities (grade 3 or 4), Platelets ([1]; n=30): 0
- Lab Abnormalities (grade 3 or 4), Total bilirubin ([1]; n=30): 0
- Lab Abnormalities (grade 3 or 4), White Blood Cells ([1]; n=30): 0
- Treatment-Related Aes ([1]; n=30): 0
- Treatment-Related SAEs ([1]; n=30): 0
- Severe Symptoms, number of patients ([1]; n=30, 14 days): 7
- Severe Symptoms, reports ([1]; n=30, 14 days): 20
- SAEs [1, 5]: 1
- SAEs [1, 6]: One
- Aes [1, 5]: 2
- Aes [1, 6]: two
- aminotransferase elevations compared to placebo ([1]; single 180 mcg s.c.): higher rate of transient aminotransferase elevations
- tolerability ([1]; single 180 mcg s.c.): well-tolerated with few adverse events
